The supplement of paper PMC9112550, “Optimization of the antimicrobial peptide Bac7 by deep mutational scanning” (BMC Biology, 2022)

Tested on: Escherichia coli TOP10
Experiment: shrunken log2 fold change of peptide-encoding DNA abundance (4.5 h post-induction vs induction); higher = less antimicrobial activity (less host growth inhibition)
Details: time post-induction: 4.5 h; library: site-saturation at positions 5, 18, 19, 20
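Also: peptides expressed intracellularly from a pBAD plasmid library in pooled LB shake-flask culture, induced with 0.3% L-arabinose, DNA abundance read by NGS, three biological replicates, DESeq2 with apeglm shrinkage.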

Sequence	shrunken log2 fold change
RRIRIRPPRLPRPRPRPGSVPRP	-0.258
RRIRKRPPRLPRPRPRPWRFPRP	0.234
RRIRLRPPRLPRPRPRPAQRPRP	0.172
RRIRVRPPRLPRPRPRPVIGPRP	0.183
RRIRQRPPRLPRPRPRPGCAPRP	0.507
RRIRQRPPRLPRPRPRPNLPPRP	0.0275
RRIRARPPRLPRPRPRPNCEPRP	0.186
RRIRIRPPRLPRPRPRPRPVPRP	0.371
RRIRFRPPRLPRPRPRPPAIPRP	0.363
RRIRWRPPRLPRPRPRPPECPRP	-0.0729
RRIRPRPPRLPRPRPRPPVAPRP	0.366
RRIRDRPPRLPRPRPRPQQCPRP	-0.00965
RRIRERPPRLPRPRPRPYMKPRP	-0.438
RRIRYRPPRLPRPRPRPQWMPRP	-0.19
RRIRTRPPRLPRPRPRPDPFPRP	-0.0199
RRIRGRPPRLPRPRPRPIVMPRP	-0.0978
RRIRIRPPRLPRPRPRPFQAPRP	-0.0938
RRIRPRPPRLPRPRPRPTWRPRP	0.639
RRIRVRPPRLPRPRPRPVWLPRP	0.276
RRIRDRPPRLPRPRPRPVMFPRP	0.16

Sequence	shrunken log2 fold change
RRIRKRPPRLPRPRPRPPFKPRP	0.498
RRIRPRPPRLPRPRPRPFFHPRP	-0.229
RRIRTRPPRLPRPRPRPTCHPRP	-0.405
RRIRIRPPRLPRPRPRPNDDPRP	-0.0364
RRIRMRPPRLPRPRPRPNATPRP	2.16
RRIRYRPPRLPRPRPRPALCPRP	-0.0404
RRIRKRPPRLPRPRPRPEQEPRP	0.408
RRIRTRPPRLPRPRPRPQHEPRP	-0.00128
RRIRMRPPRLPRPRPRPKHAPRP	3.03
RRIRRRPPRLPRPRPRPQTNPRP	0.257
RRIRYRPPRLPRPRPRPKQEPRP	-0.017
RRIRKRPPRLPRPRPRPTVWPRP	0.548
RRIRLRPPRLPRPRPRPAYEPRP	2.25
RRIRQRPPRLPRPRPRPFCQPRP	0.53
RRIRARPPRLPRPRPRPAVRPRP	0.545
RRIRRRPPRLPRPRPRPTLLPRP	0.465
RRIRYRPPRLPRPRPRPNNHPRP	-1.1
RRIRWRPPRLPRPRPRPFWKPRP	-0.136
RRIRFRPPRLPRPRPRPNYTPRP	-1.07
RRIRDRPPRLPRPRPRPNLIPRP	-0.15

Sequence	shrunken log2 fold change
RRIRDRPPRLPRPRPRPSKNPRP	-0.106
RRIRSRPPRLPRPRPRPTARPRP	0.44
RRIRPRPPRLPRPRPRPYGKPRP	-0.307
RRIRCRPPRLPRPRPRPGTNPRP	-0.15
RRIRPRPPRLPRPRPRPEVCPRP	0.138
RRIRMRPPRLPRPRPRPSVTPRP	0.703
RRIRRRPPRLPRPRPRPENNPRP	0.0497
RRIRPRPPRLPRPRPRPIHAPRP	-0.0974
RRIRHRPPRLPRPRPRPYCTPRP	-0.18
RRIRYRPPRLPRPRPRPPCWPRP	0.263
RRIRGRPPRLPRPRPRPNLAPRP	0.961
RRIRCRPPRLPRPRPRPSNKPRP	-0.44
RRIRSRPPRLPRPRPRPIPSPRP	-0.00523
RRIRYRPPRLPRPRPRPNVHPRP	-0.745
RRIRLRPPRLPRPRPRPQGWPRP	0.495
RRIRQRPPRLPRPRPRPSSYPRP	-0.416
RRIRQRPPRLPRPRPRPYESPRP	-0.261
RRIRVRPPRLPRPRPRPYCSPRP	-0.0744
RRIRCRPPRLPRPRPRPDWMPRP	-0.11
RRIRRRPPRLPRPRPRPFMMPRP	-0.173
